Substitutions are numbered along the chain they refer to.
T1: chimeric Hu-Leptin/Mu-EPO receptor (human; mouse, UniProt P48357 22-839; P14753 250-507)
T1 sequence (looked up): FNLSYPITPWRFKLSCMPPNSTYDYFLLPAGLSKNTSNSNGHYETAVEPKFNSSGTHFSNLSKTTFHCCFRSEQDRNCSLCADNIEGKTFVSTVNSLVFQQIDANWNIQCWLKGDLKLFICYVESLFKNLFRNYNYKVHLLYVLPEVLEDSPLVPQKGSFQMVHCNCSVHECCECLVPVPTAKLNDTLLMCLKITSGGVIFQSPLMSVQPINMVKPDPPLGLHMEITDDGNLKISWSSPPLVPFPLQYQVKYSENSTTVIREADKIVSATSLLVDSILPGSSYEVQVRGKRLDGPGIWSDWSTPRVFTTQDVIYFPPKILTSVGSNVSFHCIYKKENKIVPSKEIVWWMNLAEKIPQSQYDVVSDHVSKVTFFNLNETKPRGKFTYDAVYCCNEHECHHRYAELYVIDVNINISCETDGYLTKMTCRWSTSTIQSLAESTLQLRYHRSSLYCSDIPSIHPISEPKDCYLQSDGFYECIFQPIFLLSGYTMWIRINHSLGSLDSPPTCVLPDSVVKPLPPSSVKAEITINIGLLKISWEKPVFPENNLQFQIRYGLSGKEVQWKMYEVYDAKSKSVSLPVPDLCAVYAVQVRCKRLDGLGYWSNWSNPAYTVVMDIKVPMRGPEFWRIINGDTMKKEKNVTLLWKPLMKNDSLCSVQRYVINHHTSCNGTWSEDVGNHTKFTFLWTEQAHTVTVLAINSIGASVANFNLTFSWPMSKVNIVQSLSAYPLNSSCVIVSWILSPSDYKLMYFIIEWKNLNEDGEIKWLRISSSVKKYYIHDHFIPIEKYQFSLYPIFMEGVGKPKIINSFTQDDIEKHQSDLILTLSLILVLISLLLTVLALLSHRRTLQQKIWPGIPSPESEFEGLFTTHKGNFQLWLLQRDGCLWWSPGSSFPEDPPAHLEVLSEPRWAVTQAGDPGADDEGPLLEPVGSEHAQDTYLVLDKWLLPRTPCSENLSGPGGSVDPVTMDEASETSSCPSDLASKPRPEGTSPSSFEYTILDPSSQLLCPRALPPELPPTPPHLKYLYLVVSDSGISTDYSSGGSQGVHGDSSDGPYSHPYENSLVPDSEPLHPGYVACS

B1: Cmpd 70 (other)
chain: MGSLAEAKVLANRELDKYGVSDFYKRLIDKAKTVEGVEALKDAILAALPTGGEGGEGGEGGEGGEGGEASVPIQKVQDDTKTLIKTIVTRINDISHTQSVSSKQKVTGLEFIPGLHPILTLSKMDQTLAVYQQILTSMPSRNVIQISNDLENLRDLLHVLAFSKSCHLPQASGLETLESLGGVLEASGYSTEVVALSRLQGSLQDMLQQLDLSPGC
B2: PEP07986-negative linker-A500 (Compound 12) (other)
chain: B1 chain with V9E, L10A, R13A, K17S
notes: also called Cmpd 12; PEP07986-Negative-A500
B3: Cmpd 69 (other)
chain: B1 chain with D29E, D42E
B4: Cmpd 9 (other)
chain: MGSLAEAKEAANAELDSYGVSDFYKRLIDKAKTVEGVEALKDAILAALPTGGGGSGGGSGGGSGGGSASPIQRVQDDTKTLIKTIITRINDISPPQGVSSRPRVAGLDFIPRVQSVRTLSGMDQILATYQQILTSLQSRNVIQISNDLENLRDLLHVLAFSKSCPVPRARGSDTIKGLGNVLRASVHSTEVVALSRLKAALQDMLRQLDRNPGC
B5: PEP07986-neutral linker-A500 (Compound 2) (other)
chain: MGSLAEAKEAANAELDSYGVSDFYKRLIDKAKTVEGVEALKDAILAALPTGGGGSGGGSGGGSGGGSASVPIQKVQDDTKTLIKTIVTRINDISHTQSVSSKQKVTGLEFIPGLHPILTLSKMDQTLAVYQQILTSMPSRNVIQISNDLENLRDLLHVLAFSKSCHLPQASGLETLESLGGVLEASGYSTEVVALSRLQGSLQDMLQQLDLSPGC
notes: also called Cmpd 2; PEP07986-Neutral-A500
B6: Cmpd 55 (other)
chain: B5 chain with E9V, A10L, A13R, S17K
B7: Cmpd 63 (printed with SEQ ID NO: 659 in Table X4) (other)
chain: B5 chain with H166S, G181E, M205I, G214E
B8: Cmpd 48 (other)
chain: B5 chain with A13R, S17A
B9: Cmpd 41 (other)
chain: B5 chain with E6Q, A13R
B10: Cmpd 64 (other)
chain: MLAEAKEAANAELDSYGVSDFYKRLIDKAKTVEGVEALKDAILAALPTGGGGSGGGSGGGSGGGSASPIQRVQDDTKTLIKTIITRINDISPPQGVSSRPRVAGLDFIPRVQSVRTLSGMDQILATYQQILTSLQSRNVIQISNDLENLRDLLHVLAFSKSCPVPRARGSDTIKGLGNVLRASVHSTEVVALSRLKAALQDMLRQLDRNPGC
B11: Cmpd 1 (other)
chain: MGSLAEAKEAANAELDSYGVSDFYKRLIDKAKTVEGVEALKDAILAALPTGGGGASVPIQKVQDDTKTLIKTIVTRINDISHTQSVSSKQKVTGLEFIPGLHPILTLSKMDQTLAVYQQILTSMPSRNVIQISNDLENLRDLLHVLAFSKSCHLPQASGLETLESLGGVLEASGYSTEVVALSRLQGSLQDMLQQLDLSPGC
B12: Cmpd 68 (other)
chain: MLAEAKEAANAELDSYGVSDFYKRLIDKAKTVEGVEALKDAILAALPTGGGGSGGGSGGGSGGGSASVPIQKVQDDTKTLIKTIVTRINDISHTQSVSSKQKVTGLEFIPGLHPILTLSKMDQTLAVYQQILTSMPSRNVIQISNDLENLRDLLHVLAFSKSCHLPQASGLETLESLGGVLEASGYSTEVVALSRLQGSLQDMLQQLDLSPGC
B13: Cmpd 71 (other)
chain: MLAEAKEAANAELDSYGVSDFYKRLIDKAKTVEGVEALKDAILAALPTGGGGSGGGSGGGSGGGSASPIQRVQDDTKTLIKTIITRINDISHTQSVSSKQKVTGLDFIPGLHPILTLSGMDQILATYQQILTSLQSRNVIQISNDLENLRDLLHVLAFSKSCPVPRARGSDTIKGLGNVLRASVHSTEVVALSRLKAALQDMLRQLDRNPGC

target: T1, chimeric Hu-Leptin/Mu-EPO receptor; experiment: cell-based or functional assay

EC50 nM (Obeca STAT5 assay)	Binder
0.941 nM	B1
0.947 nM	B2
0.832 nM	B3
0.433 nM	B4
0.725 nM	B5
0.639 nM	B6
0.785 nM	B7
0.553 nM	B8
0.506 nM	B9
0.634 nM	B10
0.908 nM	B11
0.71 nM	B12
1.26 nM	B13

target: T2, Rat SA (rat, UniProt P02770 25-608); experiment: SPR (BioRad ProteOn XPR36), albumin amine-coupled on GLC chip, polypeptide injected from 5 nM in 3-fold dilutions, 25 C; relative KD
T2 construct: also called rat serum albumin
Procedure: (§1) All studies were conducted on a BioRad ProteOn XPR36 system using a GLC sensor chip at 25 degrees C. For amine coupling the GLC chip was activated for 5 minutes using a 1:1 mixture of sulfo-NHS/EDC diluted 30-fold from the initial stock in water as shown below. Each albumin sample was diluted to 25 ug/ml in 10 mM Na Acetate pH 5.0 and injected for 5 minutes over separate sensor surfaces. Each surface was then blocked with 1 M ethanolamine pH 8.5. Each albumin was coupled at a density of 2000-5000 in resonance units.
(§2) The binding of an engineered polypeptide was tested using 5 nM as the highest concentration in a three-fold dilution series. The running buffer contained 10 mM HEPES pH 7.4, 150 mM NaCl, 3 mM EDTA and 0.005% tween-20. All samples were tested using a 3-fold dilution series. Each concentration series was tested in duplicate. The dissociation phase for the highest concentration […] was monitored for 3 hours.

T2 sequence (P02770 25-608 limits assumed): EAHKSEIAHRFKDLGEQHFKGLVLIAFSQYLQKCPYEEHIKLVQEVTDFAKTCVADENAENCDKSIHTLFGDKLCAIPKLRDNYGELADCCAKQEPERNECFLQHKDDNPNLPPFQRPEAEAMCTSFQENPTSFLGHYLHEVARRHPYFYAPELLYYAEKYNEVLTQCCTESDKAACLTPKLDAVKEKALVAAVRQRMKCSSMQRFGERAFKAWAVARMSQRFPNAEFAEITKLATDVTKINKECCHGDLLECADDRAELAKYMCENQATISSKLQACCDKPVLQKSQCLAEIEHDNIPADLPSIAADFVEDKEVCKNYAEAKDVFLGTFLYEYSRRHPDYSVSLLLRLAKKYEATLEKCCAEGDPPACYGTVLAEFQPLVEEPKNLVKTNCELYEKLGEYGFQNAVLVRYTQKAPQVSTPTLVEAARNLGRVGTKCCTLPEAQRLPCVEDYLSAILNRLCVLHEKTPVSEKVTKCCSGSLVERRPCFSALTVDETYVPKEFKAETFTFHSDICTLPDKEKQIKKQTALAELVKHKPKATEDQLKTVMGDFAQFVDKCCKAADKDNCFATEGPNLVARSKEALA

Kd	Binder
0.01 nM	B2
0.023 nM	B5

target: T3, Monkey SA (monkey); experiment: as above
T3 construct: also called monkey serum albumin
Procedure: as §1, §2

T3 sequence (A2V9Z4 25-608): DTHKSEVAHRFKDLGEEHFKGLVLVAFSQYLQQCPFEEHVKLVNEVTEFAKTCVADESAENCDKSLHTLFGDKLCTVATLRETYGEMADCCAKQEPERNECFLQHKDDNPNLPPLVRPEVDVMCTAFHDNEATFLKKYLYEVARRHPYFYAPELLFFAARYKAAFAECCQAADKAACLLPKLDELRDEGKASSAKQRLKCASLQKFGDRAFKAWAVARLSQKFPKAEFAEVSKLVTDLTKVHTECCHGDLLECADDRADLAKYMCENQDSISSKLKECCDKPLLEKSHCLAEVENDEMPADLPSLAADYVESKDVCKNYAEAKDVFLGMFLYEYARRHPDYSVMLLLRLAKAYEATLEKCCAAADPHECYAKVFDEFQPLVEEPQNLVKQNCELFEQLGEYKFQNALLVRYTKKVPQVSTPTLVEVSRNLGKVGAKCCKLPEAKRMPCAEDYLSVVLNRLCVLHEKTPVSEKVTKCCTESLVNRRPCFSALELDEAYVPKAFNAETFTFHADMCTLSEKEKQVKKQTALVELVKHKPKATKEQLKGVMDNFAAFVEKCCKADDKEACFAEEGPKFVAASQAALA

Kd	Binder
0.4 nM	B2
0.405 nM	B5

target: T4, Dog SA (dog, UniProt P49822 25-608); experiment: as above
T4 construct: also called dog serum albumin
Procedure: as §1, §2

T4 sequence (P49822 25-608 limits assumed): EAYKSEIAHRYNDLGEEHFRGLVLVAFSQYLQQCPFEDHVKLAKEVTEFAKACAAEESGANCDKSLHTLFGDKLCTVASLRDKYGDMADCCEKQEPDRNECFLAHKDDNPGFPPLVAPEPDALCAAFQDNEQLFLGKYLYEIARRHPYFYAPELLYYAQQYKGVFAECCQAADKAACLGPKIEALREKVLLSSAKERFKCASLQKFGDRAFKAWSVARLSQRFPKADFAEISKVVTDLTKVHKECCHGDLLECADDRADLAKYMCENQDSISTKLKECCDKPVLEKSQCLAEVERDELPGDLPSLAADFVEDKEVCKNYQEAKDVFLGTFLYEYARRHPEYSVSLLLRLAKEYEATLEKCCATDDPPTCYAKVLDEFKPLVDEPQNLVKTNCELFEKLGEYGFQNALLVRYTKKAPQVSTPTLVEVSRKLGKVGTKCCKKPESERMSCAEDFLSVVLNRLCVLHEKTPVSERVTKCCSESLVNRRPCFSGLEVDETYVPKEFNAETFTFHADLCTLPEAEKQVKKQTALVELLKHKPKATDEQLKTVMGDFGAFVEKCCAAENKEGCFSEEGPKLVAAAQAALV

Kd	Binder
1.81 nM	B2
1.31 nM	B5

target: T5, Mouse SA (mouse, UniProt P07724 25-608); experiment: as above
T5 construct: also called mouse serum albumin
Procedure: as §1, §2

Kd	Binder
1.94 nM	B2
1.66 nM	B5

target: T6, human serum albumin (human, UniProt P02768 25-609); experiment: as above
T6 construct: also called HSA; Albucult (Novozyme)
Procedure: as §1, §2

T6 sequence (P02768 25-609 limits assumed): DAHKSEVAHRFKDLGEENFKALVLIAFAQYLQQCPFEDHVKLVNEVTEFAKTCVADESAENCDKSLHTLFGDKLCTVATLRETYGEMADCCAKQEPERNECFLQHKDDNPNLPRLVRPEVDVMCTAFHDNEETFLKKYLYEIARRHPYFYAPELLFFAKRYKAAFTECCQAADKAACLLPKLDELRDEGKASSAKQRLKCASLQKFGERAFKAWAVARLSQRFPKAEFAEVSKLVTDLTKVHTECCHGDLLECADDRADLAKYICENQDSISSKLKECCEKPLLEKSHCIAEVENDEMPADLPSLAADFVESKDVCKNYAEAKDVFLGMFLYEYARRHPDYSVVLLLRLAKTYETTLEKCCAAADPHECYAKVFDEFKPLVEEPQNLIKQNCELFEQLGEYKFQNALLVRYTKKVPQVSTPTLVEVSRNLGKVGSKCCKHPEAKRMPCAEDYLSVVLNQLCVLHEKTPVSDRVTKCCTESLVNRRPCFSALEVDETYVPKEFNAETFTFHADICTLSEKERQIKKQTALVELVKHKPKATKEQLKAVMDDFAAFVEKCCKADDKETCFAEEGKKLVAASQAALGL

Kd	Binder
0.27 nM	B2
0.152 nM	B5
